# From US20050112126A1 (Genentech, published 2005)
# Target: T1, VEGF (human, UniProt P15692-4 27-191, limits assumed)
# T1 construct: Biotinylated in the KDR-IgG ELISA, amine-coupled to the chip in BIAcore; also called biotinylated VEGF; vascular endothelial growth factor
# Test: competitive phage-ELISA, relative to pY0192
# Experimental: In such an assay, phages were first serially diluted to determine a fractional saturation titer which was then held constant and used to incubate with varying concentrations of VEGF (starting at 200 nM to 0 nM) in solution. The mixture was then transferred onto plate precoated with VEGF (2 μg/mL) and blocked with 5% instant milk, and allowed to equilibrate for 1 hour at room temperature. Thereafter, the phage solution was removed and the remaining bound phages were detected with a solution of rabbit anti-phage antibody mixed with goat anti-rabbit conjugate of horse radish peroxidase. After an hour incubation at room temperature, the plate was developed with a chromogenic substrate, o-phenylenediamine (Sigma). The reaction was stopped with addition of ½ volume of 2.5 M H₂SO₄. Optical density at 492 nm was measured on a spectrophotometric plate reader.
# IC50's were determined in a competitive phage-ELISA assay.
# T1 sequence (P15692 other isoform, or with tags, fused parts or gaps limits assumed): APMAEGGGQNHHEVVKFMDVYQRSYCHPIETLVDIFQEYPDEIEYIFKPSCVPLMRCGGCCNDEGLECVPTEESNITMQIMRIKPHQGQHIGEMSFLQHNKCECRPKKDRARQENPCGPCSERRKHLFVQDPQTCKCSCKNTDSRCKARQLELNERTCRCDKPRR
row,Binder,IC50 (mut)/IC50 (wt)
1,"pY0192 VL W96A (Fab, V domains shown) VH: EVQLVESGGGLVQPGGSLRLSCAASGYTFTNYGINWVRQAPGKGLEWVGWINTYTGEPTYAADFKRRFTFSLDTSKSTAYLQMNSLRAEDTAVYYCAKYPHYYGSSHWYFDVWGQGTL VL: DIQLTQSPSSLSASVGDRVTITCRANEQLSNYLNWYQQKPGKAPKVLIYFTSSLHSGVPSRFSGSGSGTDFTLTISSLQPEDFATYYCQQYSTVPATFGQGTKVEIKR",> 150
2,"pY0192 VH W50A (Fab, V domains shown) VH: EVQLVESGGGLVQPGGSLRLSCAASGYTFTNYGINWVRQAPGKGLEWVGAINTYTGEPTYAADFKRRFTFSLDTSKSTAYLQMNSLRAEDTAVYYCAKYPHYYGSSHWYFDVWGQGTL VL: DIQLTQSPSSLSASVGDRVTITCRANEQLSNYLNWYQQKPGKAPKVLIYFTSSLHSGVPSRFSGSGSGTDFTLTISSLQPEDFATYYCQQYSTVPWTFGQGTKVEIKR",> 150
3,"pY0192 VH S106A (Fab, V domains shown) VH: EVQLVESGGGLVQPGGSLRLSCAASGYTFTNYGINWVRQAPGKGLEWVGWINTYTGEPTYAADFKRRFTFSLDTSKSTAYLQMNSLRAEDTAVYYCAKYPHYYGSAHWYFDVWGQGTL VL: DIQLTQSPSSLSASVGDRVTITCRANEQLSNYLNWYQQKPGKAPKVLIYFTSSLHSGVPSRFSGSGSGTDFTLTISSLQPEDFATYYCQQYSTVPWTFGQGTKVEIKR",> 150
4,"pY0192 VH Y99A (Fab, V domains shown) VH: EVQLVESGGGLVQPGGSLRLSCAASGYTFTNYGINWVRQAPGKGLEWVGWINTYTGEPTYAADFKRRFTFSLDTSKSTAYLQMNSLRAEDTAVYYCAKAPHYYGSSHWYFDVWGQGTL VL: DIQLTQSPSSLSASVGDRVTITCRANEQLSNYLNWYQQKPGKAPKVLIYFTSSLHSGVPSRFSGSGSGTDFTLTISSLQPEDFATYYCQQYSTVPWTFGQGTKVEIKR",> 150
5,"pY0192 VH W108A (Fab, V domains shown) VH: EVQLVESGGGLVQPGGSLRLSCAASGYTFTNYGINWVRQAPGKGLEWVGWINTYTGEPTYAADFKRRFTFSLDTSKSTAYLQMNSLRAEDTAVYYCAKYPHYYGSSHAYFDVWGQGTL VL: DIQLTQSPSSLSASVGDRVTITCRANEQLSNYLNWYQQKPGKAPKVLIYFTSSLHSGVPSRFSGSGSGTDFTLTISSLQPEDFATYYCQQYSTVPWTFGQGTKVEIKR",> 150
6,"pY0192 VH Y32A (Fab, V domains shown) VH: EVQLVESGGGLVQPGGSLRLSCAASGYTFTNAGINWVRQAPGKGLEWVGWINTYTGEPTYAADFKRRFTFSLDTSKSTAYLQMNSLRAEDTAVYYCAKYPHYYGSSHWYFDVWGQGTL VL: DIQLTQSPSSLSASVGDRVTITCRANEQLSNYLNWYQQKPGKAPKVLIYFTSSLHSGVPSRFSGSGSGTDFTLTISSLQPEDFATYYCQQYSTVPWTFGQGTKVEIKR",> 150
7,"pY0192 VH N31A (Fab, V domains shown) VH: EVQLVESGGGLVQPGGSLRLSCAASGYTFTAYGINWVRQAPGKGLEWVGWINTYTGEPTYAADFKRRFTFSLDTSKSTAYLQMNSLRAEDTAVYYCAKYPHYYGSSHWYFDVWGQGTL VL: DIQLTQSPSSLSASVGDRVTITCRANEQLSNYLNWYQQKPGKAPKVLIYFTSSLHSGVPSRFSGSGSGTDFTLTISSLQPEDFATYYCQQYSTVPWTFGQGTKVEIKR",> 150
8,"pY0192 VH N52A (Fab, V domains shown) VH: EVQLVESGGGLVQPGGSLRLSCAASGYTFTNYGINWVRQAPGKGLEWVGWIATYTGEPTYAADFKRRFTFSLDTSKSTAYLQMNSLRAEDTAVYYCAKYPHYYGSSHWYFDVWGQGTL VL: DIQLTQSPSSLSASVGDRVTITCRANEQLSNYLNWYQQKPGKAPKVLIYFTSSLHSGVPSRFSGSGSGTDFTLTISSLQPEDFATYYCQQYSTVPWTFGQGTKVEIKR",> 150
9,"pY0192 VH A61S (Fab, V domains shown, Ala-scan variant of pY0192; Fab on phage) VH: EVQLVESGGGLVQPGGSLRLSCAASGYTFTNYGINWVRQAPGKGLEWVGWINTYTGEPTYSADFKRRFTFSLDTSKSTAYLQMNSLRAEDTAVYYCAKYPHYYGSSHWYFDVWGQGTL VL: DIQLTQSPSSLSASVGDRVTITCRANEQLSNYLNWYQQKPGKAPKVLIYFTSSLHSGVPSRFSGSGSGTDFTLTISSLQPEDFATYYCQQYSTVPWTFGQGTKVEIKR",1 ratio
10,"pY0192 VH E57A (Fab, V domains shown, Ala-scan variant of pY0192; Fab on phage) VH: EVQLVESGGGLVQPGGSLRLSCAASGYTFTNYGINWVRQAPGKGLEWVGWINTYTGAPTYAADFKRRFTFSLDTSKSTAYLQMNSLRAEDTAVYYCAKYPHYYGSSHWYFDVWGQGTL VL: DIQLTQSPSSLSASVGDRVTITCRANEQLSNYLNWYQQKPGKAPKVLIYFTSSLHSGVPSRFSGSGSGTDFTLTISSLQPEDFATYYCQQYSTVPWTFGQGTKVEIKR",2 ratio
11,"pY0192 VH D111A (Fab, V domains shown, Ala-scan variant of pY0192; Fab on phage) VH: EVQLVESGGGLVQPGGSLRLSCAASGYTFTNYGINWVRQAPGKGLEWVGWINTYTGEPTYAADFKRRFTFSLDTSKSTAYLQMNSLRAEDTAVYYCAKYPHYYGSSHWYFAVWGQGTL VL: DIQLTQSPSSLSASVGDRVTITCRANEQLSNYLNWYQQKPGKAPKVLIYFTSSLHSGVPSRFSGSGSGTDFTLTISSLQPEDFATYYCQQYSTVPWTFGQGTKVEIKR",2 ratio
12,"pY0192 VH F64A (Fab, V domains shown, Ala-scan variant of pY0192; Fab on phage) VH: EVQLVESGGGLVQPGGSLRLSCAASGYTFTNYGINWVRQAPGKGLEWVGWINTYTGEPTYAADAKRRFTFSLDTSKSTAYLQMNSLRAEDTAVYYCAKYPHYYGSSHWYFDVWGQGTL VL: DIQLTQSPSSLSASVGDRVTITCRANEQLSNYLNWYQQKPGKAPKVLIYFTSSLHSGVPSRFSGSGSGTDFTLTISSLQPEDFATYYCQQYSTVPWTFGQGTKVEIKR",1 ratio
13,"pY0192 VH F110A (Fab, V domains shown, Ala-scan variant of pY0192; Fab on phage) VH: EVQLVESGGGLVQPGGSLRLSCAASGYTFTNYGINWVRQAPGKGLEWVGWINTYTGEPTYAADFKRRFTFSLDTSKSTAYLQMNSLRAEDTAVYYCAKYPHYYGSSHWYADVWGQGTL VL: DIQLTQSPSSLSASVGDRVTITCRANEQLSNYLNWYQQKPGKAPKVLIYFTSSLHSGVPSRFSGSGSGTDFTLTISSLQPEDFATYYCQQYSTVPWTFGQGTKVEIKR",25 ratio
14,"pY0192 VH A62S (Fab, V domains shown, Ala-scan variant of pY0192; Fab on phage) VH: EVQLVESGGGLVQPGGSLRLSCAASGYTFTNYGINWVRQAPGKGLEWVGWINTYTGEPTYASDFKRRFTFSLDTSKSTAYLQMNSLRAEDTAVYYCAKYPHYYGSSHWYFDVWGQGTL VL: DIQLTQSPSSLSASVGDRVTITCRANEQLSNYLNWYQQKPGKAPKVLIYFTSSLHSGVPSRFSGSGSGTDFTLTISSLQPEDFATYYCQQYSTVPWTFGQGTKVEIKR",1 ratio
15,"pY0192 VH F29A (Fab, V domains shown, Ala-scan variant of pY0192; Fab on phage) VH: EVQLVESGGGLVQPGGSLRLSCAASGYTATNYGINWVRQAPGKGLEWVGWINTYTGEPTYAADFKRRFTFSLDTSKSTAYLQMNSLRAEDTAVYYCAKYPHYYGSSHWYFDVWGQGTL VL: DIQLTQSPSSLSASVGDRVTITCRANEQLSNYLNWYQQKPGKAPKVLIYFTSSLHSGVPSRFSGSGSGTDFTLTISSLQPEDFATYYCQQYSTVPWTFGQGTKVEIKR",16 ratio
16,"pY0192 VH G33A (Fab, V domains shown, Ala-scan variant of pY0192; Fab on phage) VH: EVQLVESGGGLVQPGGSLRLSCAASGYTFTNYAINWVRQAPGKGLEWVGWINTYTGEPTYAADFKRRFTFSLDTSKSTAYLQMNSLRAEDTAVYYCAKYPHYYGSSHWYFDVWGQGTL VL: DIQLTQSPSSLSASVGDRVTITCRANEQLSNYLNWYQQKPGKAPKVLIYFTSSLHSGVPSRFSGSGSGTDFTLTISSLQPEDFATYYCQQYSTVPWTFGQGTKVEIKR",6 ratio
17,"pY0192 VH G104A (Fab, V domains shown, Ala-scan variant of pY0192; Fab on phage) VH: EVQLVESGGGLVQPGGSLRLSCAASGYTFTNYGINWVRQAPGKGLEWVGWINTYTGEPTYAADFKRRFTFSLDTSKSTAYLQMNSLRAEDTAVYYCAKYPHYYASSHWYFDVWGQGTL VL: DIQLTQSPSSLSASVGDRVTITCRANEQLSNYLNWYQQKPGKAPKVLIYFTSSLHSGVPSRFSGSGSGTDFTLTISSLQPEDFATYYCQQYSTVPWTFGQGTKVEIKR",2 ratio
18,"pY0192 VH G26A (Fab, V domains shown, Ala-scan variant of pY0192; Fab on phage) VH: EVQLVESGGGLVQPGGSLRLSCAASAYTFTNYGINWVRQAPGKGLEWVGWINTYTGEPTYAADFKRRFTFSLDTSKSTAYLQMNSLRAEDTAVYYCAKYPHYYGSSHWYFDVWGQGTL VL: DIQLTQSPSSLSASVGDRVTITCRANEQLSNYLNWYQQKPGKAPKVLIYFTSSLHSGVPSRFSGSGSGTDFTLTISSLQPEDFATYYCQQYSTVPWTFGQGTKVEIKR",2 ratio
19,"pY0192 VH G56A (Fab, V domains shown, Ala-scan variant of pY0192; Fab on phage) VH: EVQLVESGGGLVQPGGSLRLSCAASGYTFTNYGINWVRQAPGKGLEWVGWINTYTAEPTYAADFKRRFTFSLDTSKSTAYLQMNSLRAEDTAVYYCAKYPHYYGSSHWYFDVWGQGTL VL: DIQLTQSPSSLSASVGDRVTITCRANEQLSNYLNWYQQKPGKAPKVLIYFTSSLHSGVPSRFSGSGSGTDFTLTISSLQPEDFATYYCQQYSTVPWTFGQGTKVEIKR",1 ratio
20,"pY0192 VH D63A (Fab, V domains shown, Ala-scan variant of pY0192; Fab on phage) VH: EVQLVESGGGLVQPGGSLRLSCAASGYTFTNYGINWVRQAPGKGLEWVGWINTYTGEPTYAAAFKRRFTFSLDTSKSTAYLQMNSLRAEDTAVYYCAKYPHYYGSSHWYFDVWGQGTL VL: DIQLTQSPSSLSASVGDRVTITCRANEQLSNYLNWYQQKPGKAPKVLIYFTSSLHSGVPSRFSGSGSGTDFTLTISSLQPEDFATYYCQQYSTVPWTFGQGTKVEIKR",1 ratio
